Laboratory results from patent US20250296960A1, “PEPTIDE COMPOSITIONS AND METHODS OF USE THEREOF” (priority 2022, published 2025).
Where two headings read alike, the source gives them in different places. Numbered stars: 1 amine (or outer) side, 2 acyl side, 3 side chain; on linkers, the order of the positions; unused ones are H or OH. Square brackets hold non-standard residues; d marks the D form. Primed or numbered codes have the meaning given here. Side chains are listed from the residue outwards. Ends that are not written are not given here. Peptide text beside a SMILES is read from it. * marks the point of attachment. C18 = C18 fatty acid (C16-C22 fatty acids conjugated via γGlu/8-amino-3,6-dioxaoctanoic acid spacers); X1 = O=C(O)CCCCCCCCCCCCCCCCC(=O)N[C@@H](CCC(=O)NCCOCCOCC(=O)NCCOCCOCC(=O)NCCN1C(=O)CC(*)C1=O)C(=O)O; methoxinine = methoxinine (m*), COCC[C@H](N[*:1])C(=O)[*:2]; C18″ = C18 fatty acid moiety (of 2OEG-γGlu-C18, K*); Biotin = O=C1N[C@H]2[C@H](CS[C@H]2CCCCC(=O)*)N1; γGlu = O=C(O)[C@H](CCC(=O)[*:2])N[*:1]; AEEA = NCCOCCOCC(=O)O; Aib = CC(C)(N)C(=O)O

Tests used:
[1] = target: T1, human GCGR (Homo sapiens, UniProt P47871); assay: cAMP assay (HitHunter cAMP) in GCGR-expressing CHO-K1 cells (GCGR+ cells); assay type: cell-based
T1 construct: host or cells: CHO-K1
T1 sequence (P47871 26-477): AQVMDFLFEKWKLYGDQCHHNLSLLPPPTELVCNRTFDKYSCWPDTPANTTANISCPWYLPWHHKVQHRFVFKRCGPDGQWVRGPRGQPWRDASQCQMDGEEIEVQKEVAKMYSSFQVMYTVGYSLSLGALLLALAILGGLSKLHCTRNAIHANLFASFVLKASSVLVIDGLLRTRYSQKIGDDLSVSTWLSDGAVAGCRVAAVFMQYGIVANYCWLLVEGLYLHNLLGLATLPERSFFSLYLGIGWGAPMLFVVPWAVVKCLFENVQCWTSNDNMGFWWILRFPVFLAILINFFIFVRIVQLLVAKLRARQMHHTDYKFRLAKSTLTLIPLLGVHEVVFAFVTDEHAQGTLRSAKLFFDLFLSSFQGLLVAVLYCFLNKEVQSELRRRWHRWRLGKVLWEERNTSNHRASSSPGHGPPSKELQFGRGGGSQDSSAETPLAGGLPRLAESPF
How it was run: (§1)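 Luminescent cAMP read-out: after 30 min peptide stimulation at 37 °C in cAMP assay buffer, receptor-expressing CHO-K1 cells (seeded 7×10^3/well the night before) received antibody and detection reagents for 1 h, then Solution A for 3 h, at room temperature in the dark.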

[2] = Body weight loss in normal C57BL/6 mice, subcutaneous dosing; assay type: in vivo; conditions: for Weight loss (%): normal mice, after 48 or 72 hours
[3] = target: T2, human GIPR (Homo sapiens, UniProt P48546); assay: cAMP assay (HitHunter cAMP) in GIPR-expressing CHO-K1 cells (GIPR+ cells); assay type: cell-based
T2 construct: host or cells: CHO-K1
T2 sequence (P48546 22-466): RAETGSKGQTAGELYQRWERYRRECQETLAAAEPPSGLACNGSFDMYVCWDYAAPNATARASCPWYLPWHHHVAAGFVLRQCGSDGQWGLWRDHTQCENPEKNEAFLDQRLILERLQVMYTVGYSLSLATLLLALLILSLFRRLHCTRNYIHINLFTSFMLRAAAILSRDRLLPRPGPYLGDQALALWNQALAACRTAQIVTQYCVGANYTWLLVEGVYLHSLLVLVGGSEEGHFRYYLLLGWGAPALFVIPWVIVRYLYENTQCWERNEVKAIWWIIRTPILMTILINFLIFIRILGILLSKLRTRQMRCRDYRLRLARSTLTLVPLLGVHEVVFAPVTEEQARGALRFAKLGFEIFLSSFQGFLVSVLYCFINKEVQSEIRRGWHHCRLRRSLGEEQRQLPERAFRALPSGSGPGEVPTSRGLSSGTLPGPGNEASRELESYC
How it was run: as §1

[4] = target: T3, human GLP-1R (Homo sapiens, UniProt P43220); assay: cAMP assay (HitHunter cAMP) in GLP-1R-expressing CHO-K1 cells (GLP-1R+ cells); assay type: cell-based
T3 construct: host or cells: CHO-K1
T3 sequence (P43220 24-463): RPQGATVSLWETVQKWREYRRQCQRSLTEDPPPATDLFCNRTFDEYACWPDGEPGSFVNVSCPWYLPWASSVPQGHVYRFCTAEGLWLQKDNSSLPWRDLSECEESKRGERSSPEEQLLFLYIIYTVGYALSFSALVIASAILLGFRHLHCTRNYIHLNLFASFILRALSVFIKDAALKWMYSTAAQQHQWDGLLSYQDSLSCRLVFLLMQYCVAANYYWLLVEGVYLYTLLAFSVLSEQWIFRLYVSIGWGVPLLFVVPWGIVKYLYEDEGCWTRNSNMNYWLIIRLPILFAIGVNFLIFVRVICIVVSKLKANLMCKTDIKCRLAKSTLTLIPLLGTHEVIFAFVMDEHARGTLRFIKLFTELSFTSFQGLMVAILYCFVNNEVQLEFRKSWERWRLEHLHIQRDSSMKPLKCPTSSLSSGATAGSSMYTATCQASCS
How it was run: as §1

[5] = In vivo efficacy in mAMLN (NASH) mice, 2 weeks
[6] = target: T4, human GLP-1 receptor (GLP-1R), expressed on CHO-K1 cells (human, UniProt P43220 24-463); assay: cell-based or functional assay
[7] = target: T5, human glucagon receptor (GCGR), expressed on CHO-K1 cells (human, UniProt P47871 26-477); assay: cell-based or functional assay
T5 sequence (P47871 26-477): as the sequence (P47871 26-477) above

[8] = target: T6, human glucose-dependent insulinotropic polypeptide receptor (GIPR), expressed on CHO-K1 cells (human, UniProt P48546 22-466); assay: cell-based or functional assay
T6 sequence (looked up): T2 sequence (P48546 22-466)

[9] = target: T4, human GLP-1 receptor (GLP-1R), …; assay: cell-based or functional assay; remark: listed apart in the source
[10] = target: T5, human glucagon receptor (GCGR), …; assay: cell-based or functional assay; remark: listed apart in the source
[11] = target: T6, human glucose-dependent insulinotropic …; assay: cell-based or functional assay; remark: listed apart in the source
[12] = target: T4, human GLP-1 receptor (GLP-1R), …; assay: cell-based or functional assay; remark: listed apart in the source
[13] = target: T5, human glucagon receptor (GCGR), …; assay: cell-based or functional assay; remark: listed apart in the source
[14] = target: T6, human glucose-dependent insulinotropic …; assay: cell-based or functional assay; remark: listed apart in the source
[15] = target: T4, human GLP-1 receptor (GLP-1R), …; assay: cell-based or functional assay; remark: listed apart in the source
[16] = target: T5, human glucagon receptor (GCGR), …; assay: cell-based or functional assay; remark: listed apart in the source
[17] = target: T6, human glucose-dependent insulinotropic …; assay: cell-based or functional assay; remark: listed apart in the source
[18] = Table 19, normalised to activity at GLP-1R
[19] = Table 24, ratio of EC50 of native ligand over peptide

CC[C@H](C)[C@H](NC(=O)[C@H](CC(C)C)NC(=O)[C@H](Cc1c[nH]c2ccccc12)NC(=O)[C@H](CCC(N)=O)NC(=O)[C@@H](NC(=O)[C@H](Cc1ccccc1)NC(=O)[C@H](CC(=O)O)NC(=O)[C@H](CCCNC(=N)N)NC(=O)[C@H](C)NC(=O)[C@H](CCSC)NC(=O)[C@H](CCSC)NC(=O)[C@H](Cc1ccc(O)cc1)NC(=O)[C@H](CC(=O)O)NC(=O)[C@H](CC(C)C)NC(=O)[C@H](Cc1ccc(O)cc1)NC(=O)[C@H](CCCCN)NC(=O)[C@H](CO)NC(=O)[C@H](Cc1ccc(O)cc1)NC(=O)[C@H](CC(=O)O)NC(=O)[C@H](CO)NC(=O)[C@@H](NC(=O)[C@H](Cc1ccccc1)NC(=O)[C@@H](NC(=O)CNC(=O)[C@H](CCC(N)=O)NC(=O)C(C)(C)NC(=O)[C@@H](N)Cc1ccc(O)cc1)[C@@H](C)O)[C@@H](C)O)C(C)C)C(=O)N[C@@H](CCC(=O)O)C(=O)NCC(=O)NCC(=O)N1CCC[C@H]1C(=O)N[C@@H](CO)C(=O)N[C@@H](CO)C(=O)NCC(=O)N[C@@H](C)C(=O)N1CCC[C@H]1C(=O)N1CCC[C@H]1C(=O)N1CCC[C@H]1C(=O)N[C@@H](CO)C(=O)N[C@@H](CSC1CC(=O)N(CCNC(=O)COCCOCCNC(=O)COCCOCCNC(=O)CC[C@H](NC(=O)CCCCCCCCCCCCCCCCC(=O)O)C(=O)O)C1=O)C(N)=O (some centres unmarked) [5-1A] (H-Y[Aib]QGTFTSDYSKYLDYMMARDFVQWLIEGGPSSGAPPPSC(X1)-NH2; N-terminus assumed)
Activity relative to STD peptide (%), GCGR ([1]; Table 18): 24% | Activity relative to GLP-1 (%), GCGR [1, 18]: 13% | Relative % to native ligand, GCGR [1, 19]: 24% | Ratio vs. GLP-1R, GCGR ([1]; Table 25): 13 | Relative % to non-lipidated peptide, GCGR ([1]; Table 26): 0% | body weight loss effect, in words ([2]; Example 5, 20 nmol/kg s.c. QD, 4 days): Superior body weight loss effects | Weight loss (%) ([2]; 10 nmol/kg QD): 20.0 ± 2.1% | Weight loss (%) ([2]; 20 nmol/kg QD): 18.9 ± 2.0% | Activity relative to STD peptide (%), GIPR ([3]; Table 18): 1% | Activity relative to GLP-1 (%), GIPR [3, 18]: 1% | Relative % to native ligand, GIPR [3, 19]: 1% | Ratio vs. GLP-1R, GIPR ([3]; Table 25): 1 | Relative % to non-lipidated peptide, GIPR ([3]; Table 26): 11% | Activity relative to STD peptide (%), GLP-1R ([4]; Table 18): 187% | Activity relative to GLP-1 (%), GLP-1R [4, 18]: 100% | Relative % to native ligand, GLP-1R [4, 19]: 187% | Ratio vs. GLP-1R, GLP-1R ([4]; Table 25): 100 | Relative % to non-lipidated peptide, GLP-1R ([4]; Table 26): 159% | blood glucose, in words ([5]; 20 nmol/kg s.c. Q2D, 2 weeks): reduce blood glucose | body weight, in words ([5]; 20 nmol/kg s.c. Q2D, 2 weeks): reduce body weight | hepatic triglyceride content, in words ([5]; end of treatment): reduce hepatic triglyceride content | liver weight, in words ([5]; end of treatment): reduce liver weight | mRNA levels of TGF-β1 (inflammation marker) and ACTA2 (fibrosis marker), in words ([5]; end of treatment): reduce both TGF-β1 and ACTA2

Y[Aib]QGTFTSDYSK([AEEA-AEEA-γGlu-C18])LLDQQAQRDFVQWLLEGGPSSGAPPPS-NH2 [SEQ ID NO. 95]
Ratio vs. GLP-1R [6]: 100 | Relative % to native ligand [6]: 1630% | Ratio vs. GLP-1R [7]: 1 | Relative % to native ligand [7]: 14% | Ratio vs. GLP-1R [8]: 19 | Relative % to native ligand [8]: 316%

B1: SEQ ID NO. 89 (peptide)
peptide: Y[Aib]QGTFTSDYSK([AEEA-AEEA-γGlu-C18])LLDYMMQRDFVKWLLEGGPSSGAPPPS-NH2
modifications: not fully specified (residue 24); printed as YAibQGT FTSDY SK*LLD YMMQR DFVB*W LLEGG PSSGA PPPS
Ratio vs. GLP-1R [6]: 100 | Relative % to native ligand [6]: 38% | Ratio vs. GLP-1R [7]: 117 | Relative % to native ligand [7]: 45% | Ratio vs. GLP-1R [8]: 399 | Relative % to native ligand [8]: 154%

Y[Aib]QGTFTSDYSK([AEEA-AEEA-γGlu-C18])YLDYMMQRDFVK(Biotin)WLLEGGPSSGAPPPS (ends and bridges not checked) [SEQ ID NO. 97]
Ratio vs. GLP-1R [6]: 100 | Relative % to native ligand [6]: 106% | Ratio vs. GLP-1R [7]: 28 | Relative % to native ligand [7]: 30% | Ratio vs. GLP-1R [8]: 117 | Relative % to native ligand [8]: 123%

H[Aib]QGTFTSDYSK([AEEA-AEEA-γGlu-C18″])YLDYMMARDFVQWLIEGGPSSGAPPPS-NH2 [Peptide No. 5D]
Relative % to non-lipidated peptide [9]: 6% | Relative % to non-lipidated peptide [10]: 10% | Relative % to non-lipidated peptide [11]: 93% | Ratio vs. GLP-1R [12]: 100 | Ratio vs. GLP-1R [13]: 204 | Ratio vs. GLP-1R [14]: 8 | Relative % to native ligand [15]: 35% | Relative % to native ligand [16]: 72% | Relative % to native ligand [17]: 3%

Y[Aib]QGTFTSDYSK([AEEA-AEEA-γGlu-C18])LLDYMMQ[Aib]DFVQWLLEGGPSSGAPPPS-NH2 [SEQ ID NO. 84]
Ratio vs. GLP-1R [6]: 100 | Relative % to native ligand [6]: 71% | Ratio vs. GLP-1R [7]: 28 | Relative % to native ligand [7]: 20% | Ratio vs. GLP-1R [8]: 470 | Relative % to native ligand [8]: 335%

Y[Aib]QGTFTSDYSK([AEEA-AEEA-γGlu-C18])LLDYMMQRDFVQWLLEGGPSSGAPPPSK(Biotin)-NH2 [SEQ ID NO. 90]
Ratio vs. GLP-1R [6]: 100 | Relative % to native ligand [6]: 50% | Ratio vs. GLP-1R [7]: 39 | Relative % to native ligand [7]: 19% | Ratio vs. GLP-1R [8]: 311 | Relative % to native ligand [8]: 154%

B2: SEQ ID NO. 86 (peptide)
peptide: Y[Aib]QGTFTSDYSK([AEEA-AEEA-γGlu-C18])LLDKMMQRDFVQWLLEGGPSSGAPPPS-NH2
modifications: not fully specified (residue 16); printed as YAibQGT FTSDY SK*LLD B*MMQR DFVQW LLEGG PSSGA PPPS
Ratio vs. GLP-1R [6]: 100 | Relative % to native ligand [6]: 90% | Ratio vs. GLP-1R [7]: 157 | Relative % to native ligand [7]: 142% | Ratio vs. GLP-1R [8]: 639 | Relative % to native ligand [8]: 575%

Y[Aib]QGTFTSDYSK([AEEA-AEEA-γGlu-C18])LLDY[methoxinine][methoxinine]QRDFVQWLLEGGPSSGAPPPS-NH2 [SEQ ID NO. 96]
Ratio vs. GLP-1R [6]: 100 | Relative % to native ligand [6]: 181% | Ratio vs. GLP-1R [7]: 10 | Relative % to native ligand [7]: 17% | Ratio vs. GLP-1R [8]: 56 | Relative % to native ligand [8]: 102%

Y[Aib]QGTFTSDYSK([AEEA-AEEA-γGlu-C18])LLDYMMQ[Aib]DFVQYLLEGGPSSGAPPPS-NH2 [SEQ ID NO. 85]
Ratio vs. GLP-1R [6]: 100 | Relative % to native ligand [6]: 12% | Ratio vs. GLP-1R [7]: 305 | Relative % to native ligand [7]: 38% | Ratio vs. GLP-1R [8]: 1150 | Relative % to native ligand [8]: 143%

B3: SEQ ID NO. 88 (peptide)
peptide: Y[Aib]QGTFTSDYSK([AEEA-AEEA-γGlu-C18])LLDYMMQKDFVQWLLEGGPSSGAPPPS-NH2
modifications: not fully specified (residue 20); printed as YAibQGT FTSDY SK*LLD YMMQB* DFVQW LLEGG PSSGA PPPS
Ratio vs. GLP-1R [6]: 100 | Relative % to native ligand [6]: 16% | Ratio vs. GLP-1R [7]: 120 | Relative % to native ligand [7]: 20% | Ratio vs. GLP-1R [8]: 432 | Relative % to native ligand [8]: 71%

Y[Aib]QGTFTSDYSK([AEEA-AEEA-γGlu-C18])LLDYMMQ[Aib]DFVQYLLEGGPSSGAPPPSK-NH2 (not fully specified (residue 40)) [SEQ ID NO. 92]
Ratio vs. GLP-1R [6]: 100 | Relative % to native ligand [6]: 8% | Ratio vs. GLP-1R [7]: 243 | Relative % to native ligand [7]: 19% | Ratio vs. GLP-1R [8]: 1530 | Relative % to native ligand [8]: 120%
